# Results as given in patent US20220098591, “STEM-LOOP COMPOSITIONS AND METHODS FOR INHIBITING VASCULAR ENDOTHELIAL GROWTN FACTOR” (DRIVE THERAPEUTICS LLC, published 2022).
# B1: Aptamer 276 (ssRNA)
# RNA: ACCCGCGCGGAGGGGUUUCAUUAUCCCGUUUGU
# modifications: G 2'-F except 2'-OMe-G as X in AC-Sp3-CCGCGCGGAGGGXUUUCAUUAUCCCGUUUGU; A,C,U 2'-OMe; Sp3 joins the two parts; 5' C6NH2; 3' idT
# What was measured:
# VEGF-A121 [1] = target: T1, VEGF-A121 (Homo sapiens, UniProt P15692 SEQ:1-121); test: competition; TR-FRET; settings: tags: glycan-biotinylated for SPR/FRET/AlphaLISA; Acro BioSystems, Biolegend; chain copies: 2 (stated)
# Procedure: (§1) Briefly, for competition TR-FRET, 2-fold dilutions of thermally equilibrated aptamers were made in TR-FRET Buffer (50 mM MOPS, pH 7.4, 125 mM NaCl, 5 mM KCl, 50 μM CHAPS, 0.1 mg/mL BSA, 1 mM CaCl₂, and 1 mM MgCl₂). 5 μL of aptamer or control solution was added to a 15 μL mix of glycan biotinylated […] (5 nM final), ALEXA FLUOR® 647-labeled Aptamer (30 nM final), and Streptavidin-Eu (Perkin Elmer; 2.5 nM final) in a black wall low volume 384 well plate (Greiner). For control, 5 μl of 1000-fold excess of unlabeled parent aptamer or 5 μl TR-FRET buffer alone was added to the mix of ALEXA FLUOR® 647-labeled aptamer, biotin-VEGF-A, and Streptavidin-Eu. The plate was covered with a plate seal and subsequently incubated in the dark for 1 hour at room temperature. The plate was read on a Biotek CYTATION™ 5 plate reader. Samples were excited at 330 nm and fluorescent values were collected at 665 nm. Data analysis was performed by subtracting the background value and plotting as percent inhibition, normalized to baseline in the absence of competitor. The values were fit by [Inhibitor] vs. response-Variable slope (four parameters) using GraphPad Prism Version 7.0 and then normalized to aptamer control to obtain an IC₅₀ relative to parent aptamer. Data is presented as log values of relative IC₅₀.
# VEGF-A121 [2] = target: T1, VEGF-A121; test: competition; TR-FRET; settings: tags: glycan-biotinylated for SPR/FRET/AlphaLISA; Acro BioSystems, Biolegend; chain copies: 2 (stated); remark: listed apart in the source
# Procedure: as §1
# Activity of each of these variants were tested using a time resolved competition TR-FRET assay, as described in Example 7, in which a labeled parent was competed with increasing concentrations of unlabeled variants for binding to VEGF-A₁₂₁.
Binder,binding signal (VEGF-A121 [2]),other results
B1,,binding signal (VEGF-A121 [1]): > 100 fold worse IC50 vs Aptamer 141
"AGGCCGCCUCCGCGCGGAGGUCUUUCAUUAGACCGUUUGGCGGCUU (ssRNA, all G 2'-F; A,C,U 2'-OMe; 5' C6NH2; 3' idT) [Aptamer 129]",> 100 fold worse IC50 vs Aptamer 26,
"AGGCCGCAUCCGCGCGGAGGGGUUUCAUUAUCCCGUUUUGCGGCUU (ssRNA, all G 2'-F; A,C,U 2'-OMe; 5' C6NH2; 3' idT) [Aptamer 122]",,binding result (VEGF-A121 [2]): binds
"AGGCCGCCUCCGCGCGGAGGCGUUUCAUUACGCCGUUUGGCGGCUU (ssRNA, all G 2'-F; A,C,U 2'-OMe; 5' C6NH2; 3' idT) [Aptamer 132]",> 100 fold worse IC50 vs Aptamer 26,
"AGGCCGCCUCCGCGCGGAGGUGUUUCAUUACACCGUUUGGCGGCUU (ssRNA, all G 2'-F; A,C,U 2'-OMe; 5' C6NH2; 3' idT) [Aptamer 130]",> 100 fold worse IC50 vs Aptamer 26,
"AGGCCGCCUCCGCACGGAGGGGUUUCAUUAUCCCGUUUGGCGGCUU (ssRNA, all G 2'-F; A,C,U 2'-OMe; 5' C6NH2; 3' idT) [Aptamer 155]",> 100 fold worse IC50 vs Aptamer 26,
"AGGCCGCCUCCGCUCGGAGGGGUUUCAUUAUCCCGUUUGGCGGCUU (ssRNA, all G 2'-F; A,C,U 2'-OMe; 5' C6NH2; 3' idT) [Aptamer 157]",> 100 fold worse IC50 vs Aptamer 26,
"AGGCCGCCUCCGCGCGGAGGGGUUUCAUUAUCCCUUUUGGCGGCUU (ssRNA, all G 2'-F; A,C,U 2'-OMe; 5' C6NH2; 3' idT) [Aptamer 164]",> 100 fold worse IC50 vs Aptamer 26,
"AGGCCGCCUCCGCGCGGAGUGGUUUCAUUAUCACGUUUGGCGGCUU (ssRNA, all G 2'-F; A,C,U 2'-OMe; 5' C6NH2; 3' idT) [Aptamer 116]",> 100 fold worse IC50 vs Aptamer 26,
"AGGCCGACUCCGCGCGGAGGGGUUUCAUUAUCCCGUUUGUCGGCUU (ssRNA, all G 2'-F; A,C,U 2'-OMe; 5' C6NH2; 3' idT) [Aptamer 125]",,binding result (VEGF-A121 [2]): binds
"AGGCCGCCUCCGCGUGGAGGGGUUUCAUUAUCCCGUUUGGCGGCUU (ssRNA, all G 2'-F; A,C,U 2'-OMe; 5' C6NH2; 3' idT) [Aptamer 160]",> 100 fold worse IC50 vs Aptamer 26,
"AGGCCGCCUCCGCGCGGCGGGGUUUCAUUAUCCCGUUUGGCGGCUU (ssRNA, all G 2'-F; A,C,U 2'-OMe; 5' C6NH2; 3' idT) [Aptamer 161]",> 100 fold worse IC50 vs Aptamer 26,
"AGGCCGCCUCCGCGGGGAGGGGUUUCAUUAUCCCGUUUGGCGGCUU (ssRNA, all G 2'-F; A,C,U 2'-OMe; 5' C6NH2; 3' idT) [Aptamer 159]",> 100 fold worse IC50 vs Aptamer 26,
"AGGCCGCCUCCGCGCGGAAGGGUUUCAUUAUCCUGUUUGGCGGCUU (ssRNA, all G 2'-F; A,C,U 2'-OMe; 5' C6NH2; 3' idT) [Aptamer 112]",> 100 fold worse IC50 vs Aptamer 26,
"AGGCCGCCUCAGCGCUGAGGGGUUUCAUUAUCCCGUUUGGCGGCUU (ssRNA, all G 2'-F; A,C,U 2'-OMe; 5' C6NH2; 3' idT) [Aptamer 178]",,binding result (VEGF-A121 [2]): binds
"AGGCCGCCUCCACGCGGAGGGGUUUCAUUAUCCCGUUUGGCGGCUU (ssRNA, all G 2'-F; A,C,U 2'-OMe; 5' C6NH2; 3' idT) [Aptamer 149]",> 100 fold worse IC50 vs Aptamer 26,
"AGGCCGCCUCCGCCCGGAGGGGUUUCAUUAUCCCGUUUGGCGGCUU (ssRNA, all G 2'-F; A,C,U 2'-OMe; 5' C6NH2; 3' idT) [Aptamer 156]",> 100 fold worse IC50 vs Aptamer 26,
"AGGCCGCCGCCGCGCGGAGGGGUUUCAUUAUCCCGUUUGGCGGCUU (ssRNA, all G 2'-F; A,C,U 2'-OMe; 5' C6NH2; 3' idT) [Aptamer 148]",,binding result (VEGF-A121 [2]): binds
"AGGCCGCCUCCGCGCGGAGGGGUUUCAUUAUCCCAUUUGGCGGCUU (ssRNA, all G 2'-F; A,C,U 2'-OMe; 5' C6NH2; 3' idT) [Aptamer 162]",> 100 fold worse IC50 vs Aptamer 26,
"AGGCCGCCUCCGCGCGGACGGGUUUCAUUAUCCGGUUUGGCGGCUU (ssRNA, all G 2'-F; A,C,U 2'-OMe; 5' C6NH2; 3' idT) [Aptamer 114]",> 100 fold worse IC50 vs Aptamer 26,
"AGGCCGCUUCCGCGCGGAGGGGUUUCAUUAUCCCGUUUAGCGGCUU (ssRNA, all G 2'-F; A,C,U 2'-OMe; 5' C6NH2; 3' idT) [Aptamer 123]",,binding result (VEGF-A121 [2]): binds
"AGGCCGCCUCCGCGCGGAGGGCUUUCAUUAGCCCGUUUGGCGGCUU (ssRNA, all G 2'-F; A,C,U 2'-OMe; 5' C6NH2; 3' idT) [Aptamer 127]",> 100 fold worse IC50 vs Aptamer 26,
"AGGCCGCCUCCGCGCGGAGCGGUUUCAUUAUCGCGUUUGGCGGCUU (ssRNA, all G 2'-F; A,C,U 2'-OMe; 5' C6NH2; 3' idT) [Aptamer 117]",> 100 fold worse IC50 vs Aptamer 26,
